The text below walks through data of paper PMC12820186.

For the data set, the target named is T1, CsEIN3 DNA-binding domain (CsEIN3-BD) (cucumber, UniProt A0A0A0LXB4 1-412).
T1 sequence: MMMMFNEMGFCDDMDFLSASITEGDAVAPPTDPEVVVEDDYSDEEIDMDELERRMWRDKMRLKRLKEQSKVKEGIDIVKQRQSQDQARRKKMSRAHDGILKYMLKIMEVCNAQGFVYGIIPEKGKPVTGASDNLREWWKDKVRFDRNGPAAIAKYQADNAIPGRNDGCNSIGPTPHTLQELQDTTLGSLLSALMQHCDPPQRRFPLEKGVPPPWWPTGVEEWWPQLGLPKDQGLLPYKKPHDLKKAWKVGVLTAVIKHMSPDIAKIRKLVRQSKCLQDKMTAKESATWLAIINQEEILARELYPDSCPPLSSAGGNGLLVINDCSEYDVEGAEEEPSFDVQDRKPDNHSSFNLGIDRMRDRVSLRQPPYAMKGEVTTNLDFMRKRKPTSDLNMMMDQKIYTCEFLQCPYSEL
The data set can be described thus: EMSA.

B1: proCsCYP707A4 p4 probe (dsDNA)
DNA 1: GCGAACGTCGTGTGAAGTACTTCATGGAGACGAATA
DNA 2: TATTCGTCTCCATGAAGTACTTCACACGACGTTCGC
As to B1, the binding result was “no binding”.

B2: proCsCYP707A4 p2 probe (dsDNA)
DNA 1: CGTCGTGTGAAGTACTTCATGGAGACGAATAAAAG
DNA 2: CTTTTATTCGTCTCCATGAAGTACTTCACACGACG
B2: the binding result is given as “no binding”.

B3: proCsCYP707A4 p3 probe (dsDNA)
DNA 1: TTGCCAACTAATTTCATGTTCAATCAATGAAAGTGA
DNA 2: TCACTTTCATTGATTGAACATGAAATTAGTTGGCAA
Consider B3, for which the binding result is “no binding”.
